According to patent publication US20030203373A1 (priority 2002, published 2003):
“And” between values parts separate entries of the source, which are not always exact repeats. Equal values may be shown once. Ends that are not written are not given here.

Key:
[1] = target: T1, angiotensin-converting-enzyme derived from pig kidney (pig) (UniProt F1RRW5); assay: cell-based or functional assay
T1 sequence (looked up): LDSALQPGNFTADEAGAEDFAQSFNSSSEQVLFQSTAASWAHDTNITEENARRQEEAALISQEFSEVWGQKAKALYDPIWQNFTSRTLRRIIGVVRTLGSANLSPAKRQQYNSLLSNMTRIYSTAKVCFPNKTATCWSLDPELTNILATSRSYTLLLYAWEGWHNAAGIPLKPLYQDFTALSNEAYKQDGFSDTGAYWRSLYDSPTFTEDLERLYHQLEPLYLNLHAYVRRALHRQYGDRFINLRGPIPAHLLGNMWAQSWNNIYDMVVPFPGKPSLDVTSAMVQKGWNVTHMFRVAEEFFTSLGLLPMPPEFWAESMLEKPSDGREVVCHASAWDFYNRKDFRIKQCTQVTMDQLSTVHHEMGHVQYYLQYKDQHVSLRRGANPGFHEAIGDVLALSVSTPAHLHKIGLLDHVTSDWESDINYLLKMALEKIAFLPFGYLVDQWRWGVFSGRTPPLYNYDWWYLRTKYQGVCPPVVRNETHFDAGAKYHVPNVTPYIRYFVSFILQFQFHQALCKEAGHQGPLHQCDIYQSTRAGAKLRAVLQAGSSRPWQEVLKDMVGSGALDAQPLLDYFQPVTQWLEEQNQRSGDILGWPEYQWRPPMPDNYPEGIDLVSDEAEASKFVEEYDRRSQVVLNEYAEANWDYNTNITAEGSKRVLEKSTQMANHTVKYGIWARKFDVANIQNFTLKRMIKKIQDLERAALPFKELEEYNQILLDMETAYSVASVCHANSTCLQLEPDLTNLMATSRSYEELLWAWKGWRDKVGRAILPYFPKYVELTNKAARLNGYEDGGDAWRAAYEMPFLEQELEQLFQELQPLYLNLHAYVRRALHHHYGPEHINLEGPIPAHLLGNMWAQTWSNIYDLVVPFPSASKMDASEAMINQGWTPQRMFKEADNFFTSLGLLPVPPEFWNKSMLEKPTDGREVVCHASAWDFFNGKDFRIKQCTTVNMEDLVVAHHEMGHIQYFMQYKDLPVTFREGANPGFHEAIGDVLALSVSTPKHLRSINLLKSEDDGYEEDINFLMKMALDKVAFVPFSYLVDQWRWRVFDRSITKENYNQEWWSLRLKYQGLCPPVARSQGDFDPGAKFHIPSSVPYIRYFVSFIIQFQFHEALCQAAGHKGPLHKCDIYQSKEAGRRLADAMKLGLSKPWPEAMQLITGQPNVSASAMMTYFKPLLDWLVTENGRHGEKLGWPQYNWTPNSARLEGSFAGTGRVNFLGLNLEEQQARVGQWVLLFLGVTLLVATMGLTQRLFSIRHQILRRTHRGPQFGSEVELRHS

ACE from pig kidney = target: T2, ACE from pig kidney (Sus scrofa, UniProt F1RRW5); assay: biochemical; type: biochemical
T2 construct: 1 mU ACE from pig kidney (EC 3.4.15.1 (Sigma)); purchased Sigma; host or cells: pig kidney (tissue-derived enzyme)
T2 sequence (F1RRW5 34-1309): T1 sequence (looked up)
Procedure, shortened: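 Pig kidney ACE (1 mU) in 25 mM HEPES, 0,3 M NaCl, pH 8,2 was mixed with inhibitor solutions (0,35-200 μM) and started with 2 mM hippuryl-histidyl-leucine solution. After 30 min at 22° C the reaction was stopped with NaOH and the product derivatized with ortho-phthalaldehyde for fluorescence. IC50 was read graphically from % inhibition curves.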

[2] = inhibitor 0.39 μM, replicates A-D
[3] = inhibitor 0.78125 μM, replicates A-D
[4] = inhibitor 1.5625 μM, replicates A-D
[5] = inhibitor 3.125 μM, replicates A-D
[6] = inhibitor 6.25 μM, replicates A-D
[7] = inhibitor 12.5 μM, replicates A-D
[8] = inhibitor 25 μM, replicates A-D
[9] = inhibitor 50 μM, replicates A-D
[10] = inhibitor 100 μM, replicates A-D
[11] = inhibitor 200 μM, replicates A-D

In the case of BPP9a from Bothrops jararaca (peptide), the % inhibition, inhibitor 0.0097 µM, row A [1] is reported as 18%, the % inhibition, inhibitor 0.0097 µM, row B [1] is reported as 17.3% and the % inhibition, inhibitor 0.0097 µM, row C [1] is reported as 14.8%. It also gave a % inhibition, inhibitor 0.0097 µM, row D [1] of 7.86%, a % inhibition, inhibitor 0.0195 µM, row C [1] of 23% and a % inhibition, inhibitor 0.078 µM, row B [1] of 43.5%. The % inhibition, inhibitor 0.15625 µM, row B [1] was 63.3%, the % inhibition, inhibitor 0.3125 µM, row A [1] was 84% and the % inhibition, inhibitor 0.3125 µM, row B [1] was 83.8%. The % inhibition, inhibitor 0.625 µM, row A [1] was 94%, the % inhibition, inhibitor 0.625 µM, row B [1] was 93.5% and the % inhibition, inhibitor 1.25 µM, row B [1] was 97.3%. The IC50, ACE inhibition [1] was 97 nM, the IC50-value, ACE inhibition (hippuryl-histidyl-leucin substrate) [1] was 97 nM and the fluorescence, inhibitor 0.0097 µM, row A [1] was 704000. The fluorescence, inhibitor 0.0097 µM, row B [1] was 710000, the fluorescence, inhibitor 0.0097 µM, row C [1] was 732000 and the fluorescence, inhibitor 0.0097 µM, row D [1] was 791000. The fluorescence, inhibitor 0.0195 µM, row A [1] was 650000, the fluorescence, inhibitor 0.0195 µM, row B [1] was 652000 and the fluorescence, inhibitor 0.0195 µM, row C [1] was 662000. It also gave a fluorescence, inhibitor 0.0195 µM, row D [1] of 697000, a fluorescence, inhibitor 0.039 µM, row A [1] of 629000 and a fluorescence, inhibitor 0.039 µM, row B [1] of 556000. For the same substance, the fluorescence, inhibitor 0.039 µM, row C [1] was 592000, the fluorescence, inhibitor 0.039 µM, row D [1] was 454000 and the fluorescence, inhibitor 0.078 µM, row A [1] was 446000. The fluorescence, inhibitor 0.078 µM, row B [1] was 487000, the fluorescence, inhibitor 0.078 µM, row C [1] was 445000 and the fluorescence, inhibitor 0.078 µM, row D [1] was 462000. For the same substance, the fluorescence, inhibitor 0.15625 µM, row A [1] was 309000, the fluorescence, inhibitor 0.15625 µM, row B [1] was 318000 and the fluorescence, inhibitor 0.15625 µM, row C [1] was 311000. The fluorescence, inhibitor 0.15625 µM, row D [1] was 262000, the fluorescence, inhibitor 0.3125 µM, row A [1] was 142000 and the fluorescence, inhibitor 0.3125 µM, row B [1] was 144000. The fluorescence, inhibitor 0.3125 µM, row C [1] was 148000, the fluorescence, inhibitor 0.3125 µM, row D [1] was 149000 and the fluorescence, inhibitor 0.625 µM, row A [1] was 55600. For the same substance, the fluorescence, inhibitor 0.625 µM, row B [1] was 60300, the fluorescence, inhibitor 0.625 µM, row C [1] was 60900 and the fluorescence, inhibitor 0.625 µM, row D [1] was 57500. For the same substance, the fluorescence, inhibitor 1.25 µM, row A [1] was 25800, the fluorescence, inhibitor 1.25 µM, row B [1] was 27500 and the fluorescence, inhibitor 1.25 µM, row C [1] was 27000. For the same substance, the fluorescence, inhibitor 1.25 µM, row D [1] was 27200, the fluorescence, inhibitor 2.5 µM, row A [1] was 14000 and the fluorescence, inhibitor 2.5 µM, row B [1] was 13900. For the same substance, the fluorescence, inhibitor 2.5 µM, row C [1] was 14100, the fluorescence, inhibitor 2.5 µM, row D [1] was 15100 and the fluorescence, inhibitor 5 µM, row A [1] was 10600. The fluorescence, inhibitor 5 µM, row B [1] was 9630, the fluorescence, inhibitor 5 µM, row C [1] was 9630 and the fluorescence, inhibitor 5 µM, row D [1] was 9660.

LSPLPEVPP [Peptide S546] was tested, and the IC50 (ACE from pig kidney; ACE from pig kidney, determined graphically, read-out: IC50-value (ACE inhibition)) was 3500 nM, the “fluorescence reading (ACE Inhibitor Assay)” value (ACE from pig kidney; [2]) was 803315 and 773719 and 787391 and 826280 and the inhibition at 0.39 µM (ACE from pig kidney; [2]) was 11.1%. The “% inhibition (ACE Inhibitor Assay)” value (ACE from pig kidney; inhibitor 0.39 μM, replicates A-D, 0.39 µM) was 14.38% and 12.86% and 8.53%, the “fluorescence reading (ACE Inhibitor Assay)” value (ACE from pig kidney; [3]) was 719861 and 687713 and 702450 and 763649 and the inhibition at 0.78125 µM (ACE from pig kidney; [3]) was 20.4%. The “% inhibition (ACE Inhibitor Assay)” value (ACE from pig kidney; inhibitor 0.78125 μM, replicates A-D, 0.78125 µM) was 23.96% and 22.32% and 15.5%, the “fluorescence reading (ACE Inhibitor Assay)” value (ACE from pig kidney; [4]) was 591636 and 572728 and 566984 and 657580 and the inhibition at 1.5625 µM (ACE from pig kidney; [4]) was 34.7%. The “% inhibition (ACE Inhibitor Assay)” value (ACE from pig kidney; inhibitor 1.5625 μM, replicates A-D, 1.5625 µM) was 36.77% and 37.41% and 27.32%, the “fluorescence reading (ACE Inhibitor Assay)” value (ACE from pig kidney; [5]) was 483121 and 472396 and 452574 and 495814 and the inhibition at 3.125 µM (ACE from pig kidney; [5]) was 46.8%. For the same substance, the “% inhibition (ACE Inhibitor Assay)” value (ACE from pig kidney; inhibitor 3.125 μM, replicates A-D, 3.125 µM) was 47.95% and 50.15% and 45.32%, the “fluorescence reading (ACE Inhibitor Assay)” value (ACE from pig kidney; [6]) was 308510 and 312423 and 322970 and 336576 and the inhibition at 6.25 µM (ACE from pig kidney; [6]) was 66.2%. The “% inhibition (ACE Inhibitor Assay)” value (ACE from pig kidney; inhibitor 6.25 μM, replicates A-D, 6.25 µM) was 65.77% and 64.59% and 63.07%, the “fluorescence reading (ACE Inhibitor Assay)” value (ACE from pig kidney; [7]) was 225714 and 208268 and 221839 and 226385 and the inhibition at 12.5 µM (ACE from pig kidney; [7]) was 75.4%. For the same substance, the “% inhibition (ACE Inhibitor Assay)” value (ACE from pig kidney; inhibitor 12.5 μM, replicates A-D, 12.5 µM) was 77.32% and 75.86% and 75.35%, the “fluorescence reading (ACE Inhibitor Assay)” value (ACE from pig kidney; [8]) was 116421 and 119382 and 118514 and 124101 and the inhibition at 25 µM (ACE from pig kidney; [8]) was 87.6%. The “% inhibition (ACE Inhibitor Assay)” value (ACE from pig kidney; inhibitor 25 μM, replicates A-D, 25 µM) was 87.27% and 87.36% and 86.74%, the “fluorescence reading (ACE Inhibitor Assay)” value (ACE from pig kidney; [9]) was 69502 and 65379 and 67861 and 73176 and the inhibition at 50 µM (ACE from pig kidney; [9]) was 92.8%. For the same substance, the “% inhibition (ACE Inhibitor Assay)” value (ACE from pig kidney; inhibitor 50 μM, replicates A-D, 50 µM) was 93.28% and 93.01% and 92.41%, the “fluorescence reading (ACE Inhibitor Assay)” value (ACE from pig kidney; [10]) was 37664 and 36789 and 37490 and 39445 and the inhibition at 100 µM (ACE from pig kidney; [10]) was 96.4%. For the same substance, the “% inhibition (ACE Inhibitor Assay)” value (ACE from pig kidney; inhibitor 100 μM, replicates A-D, 100 µM) was 96.47% and 96.39% and 96.17%, the “fluorescence reading (ACE Inhibitor Assay)” value (ACE from pig kidney; [11]) was 22822 and 23110 and 24700 and 22511 and the inhibition at 200 µM (ACE from pig kidney; [11]) was 98%. For the same substance, the “% inhibition (ACE Inhibitor Assay)” value (ACE from pig kidney; inhibitor 200 μM, replicates A-D, 200 µM) was 97.99% and 97.82% and 98.06%.
